Reference: paper PMC3579138

Tests used:
[1] = target: K63-polyubiquitinated Nedd4 (resin-bound GST-Nedd4, autoubiquitinated) (UniProt P46934); assay: pull-down
[2] = target: K63-polyubiquitinated Sic1 (UniProt P38634)
[3] = target: K63-linked tetraubiquitin (Homo sapiens) (UniProt P0CG48); conditions: cited from earlier work
[4] = target: K48-linked tetraubiquitin (Homo sapiens) (UniProt P0CG48); conditions: cited from earlier work

Sequence of K63-polyubiquitinated Nedd4 (resin-bound GST-Nedd4, autoubiquitinated) (P46934 whole entry): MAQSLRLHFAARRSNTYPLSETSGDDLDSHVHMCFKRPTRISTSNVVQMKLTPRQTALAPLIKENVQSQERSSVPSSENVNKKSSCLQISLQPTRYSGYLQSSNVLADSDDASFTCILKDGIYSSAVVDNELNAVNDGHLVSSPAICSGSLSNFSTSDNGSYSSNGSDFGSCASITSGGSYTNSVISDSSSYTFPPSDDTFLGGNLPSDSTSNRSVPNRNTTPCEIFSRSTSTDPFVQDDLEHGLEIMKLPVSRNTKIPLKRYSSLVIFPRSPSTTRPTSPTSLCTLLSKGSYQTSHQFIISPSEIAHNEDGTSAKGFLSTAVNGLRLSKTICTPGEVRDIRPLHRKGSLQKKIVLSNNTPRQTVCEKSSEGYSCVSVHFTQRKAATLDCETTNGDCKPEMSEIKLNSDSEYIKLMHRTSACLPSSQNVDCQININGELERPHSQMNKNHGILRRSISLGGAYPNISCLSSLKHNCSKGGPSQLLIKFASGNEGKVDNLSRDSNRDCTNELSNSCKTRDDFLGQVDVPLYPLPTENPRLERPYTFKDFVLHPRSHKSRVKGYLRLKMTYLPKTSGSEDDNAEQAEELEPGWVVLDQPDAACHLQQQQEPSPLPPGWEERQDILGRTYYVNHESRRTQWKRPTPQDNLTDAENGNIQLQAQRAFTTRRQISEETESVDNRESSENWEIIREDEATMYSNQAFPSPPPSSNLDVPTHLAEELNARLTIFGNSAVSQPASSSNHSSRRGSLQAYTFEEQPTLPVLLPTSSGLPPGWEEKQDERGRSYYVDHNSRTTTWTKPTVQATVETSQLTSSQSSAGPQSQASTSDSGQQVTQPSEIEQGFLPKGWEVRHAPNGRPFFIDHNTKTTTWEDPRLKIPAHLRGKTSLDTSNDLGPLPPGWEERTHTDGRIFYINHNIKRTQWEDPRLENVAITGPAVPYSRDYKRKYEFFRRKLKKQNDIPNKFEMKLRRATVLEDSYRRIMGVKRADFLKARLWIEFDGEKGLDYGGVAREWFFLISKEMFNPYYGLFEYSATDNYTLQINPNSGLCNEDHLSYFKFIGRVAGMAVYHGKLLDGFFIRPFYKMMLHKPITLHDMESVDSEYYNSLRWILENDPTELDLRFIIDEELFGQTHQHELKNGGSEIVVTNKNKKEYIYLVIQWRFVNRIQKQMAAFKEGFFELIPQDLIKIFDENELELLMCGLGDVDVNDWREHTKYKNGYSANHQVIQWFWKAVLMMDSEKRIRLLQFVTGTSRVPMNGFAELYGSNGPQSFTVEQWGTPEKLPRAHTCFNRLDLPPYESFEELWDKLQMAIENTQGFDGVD
Sequence of hHR23A UBA2 (P54725 315-361): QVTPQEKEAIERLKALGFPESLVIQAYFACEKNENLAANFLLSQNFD
Sequence of Hrs, purified recombinant (O14964 whole entry): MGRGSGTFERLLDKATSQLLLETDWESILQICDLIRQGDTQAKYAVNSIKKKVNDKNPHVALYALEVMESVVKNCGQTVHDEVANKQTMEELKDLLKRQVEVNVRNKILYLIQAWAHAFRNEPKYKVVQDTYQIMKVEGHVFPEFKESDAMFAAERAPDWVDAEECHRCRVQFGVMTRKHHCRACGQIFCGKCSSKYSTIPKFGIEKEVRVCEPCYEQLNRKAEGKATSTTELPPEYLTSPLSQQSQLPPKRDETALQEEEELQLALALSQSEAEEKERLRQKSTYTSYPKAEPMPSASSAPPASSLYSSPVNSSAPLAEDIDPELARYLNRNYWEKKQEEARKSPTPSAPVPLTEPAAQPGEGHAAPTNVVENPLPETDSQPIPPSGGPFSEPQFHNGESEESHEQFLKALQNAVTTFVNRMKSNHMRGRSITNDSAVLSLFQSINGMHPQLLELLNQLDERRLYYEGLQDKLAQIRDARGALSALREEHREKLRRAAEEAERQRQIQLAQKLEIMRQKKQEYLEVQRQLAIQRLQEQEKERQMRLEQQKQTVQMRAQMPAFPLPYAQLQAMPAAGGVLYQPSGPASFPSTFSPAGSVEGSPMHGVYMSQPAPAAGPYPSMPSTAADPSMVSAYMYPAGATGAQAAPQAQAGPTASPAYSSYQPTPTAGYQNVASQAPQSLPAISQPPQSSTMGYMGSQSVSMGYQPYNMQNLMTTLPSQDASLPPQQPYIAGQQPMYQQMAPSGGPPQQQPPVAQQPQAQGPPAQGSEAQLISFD

## 26S proteasomes purified from rabbit muscle (complex)
[1]
  percent binding with lysate of cells with Hrs and STAM knocked down: 35%
  percent binding with lysate of control cells: 19%
  percent reduction of binding by the cell extract: < 80%

## Hrs, purified recombinant (from UniProt O14964 1-777) (natural protein)
[2]
  percent decrease of conjugate binding to proteasomes at 80nM: 80%

## hHR23A UBA2 (from UniProt P54725)
[3]
  Kd: 28 µM
[4]
  Kd: 8 µM
